Measured values published in US20200113821A1.

Target: c-Kit (CD117; mast/stem cell growth factor receptor) on CD117+ bone marrow cells of β-globin/GFP transgenic mice (mouse) (UniProt P05532)
Experiment: cell-based or functional assay

UniProt P05532, sequence (P05532 25-979): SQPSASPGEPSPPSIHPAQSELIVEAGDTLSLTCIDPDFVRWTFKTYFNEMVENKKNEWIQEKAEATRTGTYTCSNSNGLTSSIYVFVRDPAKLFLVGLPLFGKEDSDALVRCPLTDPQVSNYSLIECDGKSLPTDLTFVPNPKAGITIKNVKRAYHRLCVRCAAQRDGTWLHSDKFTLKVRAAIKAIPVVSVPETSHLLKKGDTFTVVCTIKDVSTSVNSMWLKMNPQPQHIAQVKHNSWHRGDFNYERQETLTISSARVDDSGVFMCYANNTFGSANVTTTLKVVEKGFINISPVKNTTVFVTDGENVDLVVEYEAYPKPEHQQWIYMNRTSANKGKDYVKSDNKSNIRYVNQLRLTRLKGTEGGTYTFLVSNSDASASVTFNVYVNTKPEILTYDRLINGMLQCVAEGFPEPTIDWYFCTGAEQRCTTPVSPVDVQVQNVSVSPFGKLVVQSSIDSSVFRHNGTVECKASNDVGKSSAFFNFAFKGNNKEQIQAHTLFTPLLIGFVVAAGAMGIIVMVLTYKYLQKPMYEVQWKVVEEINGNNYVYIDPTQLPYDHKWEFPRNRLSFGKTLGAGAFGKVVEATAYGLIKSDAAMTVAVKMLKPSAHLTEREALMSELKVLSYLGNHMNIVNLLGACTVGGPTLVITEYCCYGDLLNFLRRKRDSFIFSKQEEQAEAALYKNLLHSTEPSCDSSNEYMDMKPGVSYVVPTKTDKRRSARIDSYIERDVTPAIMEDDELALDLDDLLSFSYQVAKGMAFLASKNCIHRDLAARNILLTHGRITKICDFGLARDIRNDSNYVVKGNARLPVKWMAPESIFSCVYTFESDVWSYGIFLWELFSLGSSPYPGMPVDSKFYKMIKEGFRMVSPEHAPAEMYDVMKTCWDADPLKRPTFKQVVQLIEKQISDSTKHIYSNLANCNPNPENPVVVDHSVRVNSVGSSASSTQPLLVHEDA

HDR activity (recombination between reporter gene constructs) in CD117+ cells: 2 fold | γtcPNA4/donor DNA-mediated gene editing (% GFP expressing CD117+ cells, flow cytometry): 15%
Substance: Recombinant murine SCF (stem cell factor), catalog #250-03, PeproTech (from UniProt P20826 26-189) (ligand)
